Test results as given in the supplement of paper PMC10724198.
± gives the standard deviation of the averaged measurements.

Test system: Saccharomyces cerevisiae
Assay: protein stability index of tFT-peptide fusion (C-terminal peptide) (PSI (0-1 scale)); higher = more stable (slower turnover)
Conditions: genetic background: wild type; temperature: 30 C
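Also: PSI is a weighted mean of sequencing reads over stability bins, variants kept only with over 10 reads, mCherry proximal and sfGFP distal, peptide attached via GGGS linker.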

QPGRGIAFVCFD
protein stability index: 0.735 ± 0.051

QPHPPRAVLTGP
protein stability index: 0.6975 ± 0.005

QPLTYHPLLRRP
protein stability index: 0.715 ± 0.051

QPPSCTSRPPYR
protein stability index: 0.718 ± 0.096

QPRLLGPDRIDL
protein stability index: 0.662 ± 0.036

QPTPRPSPRPAC
protein stability index: 0.672 ± 0.025

QQISQIFHKQGK
protein stability index: 0.851 ± 0.13

QQTSGVQERICL
protein stability index: 0.744 ± 0.07

QREGPEKRTHGR
protein stability index: 0.709 ± 0.038

QRGGVGWILGGV
protein stability index: 0.675 ± 0.034

QRGRGGRHVTDI
protein stability index: 0.71 ± 0.069

QRKGNLTKTEPV
protein stability index: 0.676 ± 0.1

QRKLTFIKRYRV
protein stability index: 0.67 ± 0.041

QRTQRGKQPGQR
protein stability index: 0.679 ± 0.08

QSHALSLRKGMP
protein stability index: 0.681 ± 0.052

QSLPLSAPAPAC
protein stability index: 0.697 ± 0.037

QSPTFLTPLALA
protein stability index: 0.653 ± 0.039

QSTRPHSHGCLG
protein stability index: 0.748 ± 0.051

QTGGPDPSGPPK
protein stability index: 0.693 ± 0.03

QTIKKKKKDKKN
protein stability index: 0.764 ± 0.011

QTNIGRKRTLPR
protein stability index: 0.718 ± 0.013

QTQNEENKKQKY
protein stability index: 0.612 ± 0.13

QTVKNYTSQSKR
protein stability index: 0.666 ± 0.018

QTWVQIGIRITL
protein stability index: 0.44 ± 0.087

QVGGVRSRGAAG
protein stability index: 0.664 ± 0.017

QVGSLEIFLCFI
protein stability index: 0.6323 ± 0.0016

QVKVGQTEMAYN
protein stability index: 0.78 ± 0.22

QVLIKKRNIKKK
protein stability index: 0.651 ± 0.076

QVNSAHKRTGSG
protein stability index: 0.668 ± 0.061

QVVIGRLSSQVG
protein stability index: 0.664 ± 0.038

QWFTCLFYFRSP
protein stability index: 0.5697 ± 0.0029

QYGMSSQGGGHN
protein stability index: 0.7312 ± 0.0017

QYKEFYYQNNRR
protein stability index: 0.562 ± 0.062

QYMDQIKGRSGT
protein stability index: 0.723 ± 0.0079

RAADGWGVLCGV
protein stability index: 0.679 ± 0.095

RAAREASQDIPN
protein stability index: 0.753 ± 0.12

RACVCPCHPHRY
protein stability index: 0.737 ± 0.025

RAGFSEPCGSFS
protein stability index: 0.668 ± 0.046

RAGGGAWAGGVA
protein stability index: 0.7085 ± 0.0024

RAGSLTSGVCGP
protein stability index: 0.663 ± 0.015

RAIPRPLPPRRI
protein stability index: 0.7164 ± 0.0029

RAIPTWPIGDRR
protein stability index: 0.655 ± 0.029

RALGVPPLSHLP
protein stability index: 0.656 ± 0.036

RALLGSVVCSYG
protein stability index: 0.6268 ± 0.0016

RALPSPPPCPPG
protein stability index: 0.524 ± 0.031

RAPCSLDFRGNA
protein stability index: 0.758 ± 0.12

RAPNSVPSIKKP
protein stability index: 0.68 ± 0.098

RAPPRLHPPFPP
protein stability index: 0.676 ± 0.11

RAPSLLRPRSPP
protein stability index: 0.658 ± 0.12

RAPTRDQCPCPG
protein stability index: 0.68 ± 0.035

RARFSASCRYRV
protein stability index: 0.671 ± 0.048

RARYGPSYTLPL
protein stability index: 0.642 ± 0.027

RASAHLVAIVRY
protein stability index: 0.642 ± 0.02

RASLPKSLPVSY
protein stability index: 0.604 ± 0.07

RASRGLGWRRND
protein stability index: 0.66 ± 0.015

RATRLFPPPHFS
protein stability index: 0.7 ± 0.037

RAVFNMSSPSHI
protein stability index: 0.711 ± 0.077

RCCGGSEVVRAG
protein stability index: 0.705 ± 0.014

RCGGGKWWRGAE
protein stability index: 0.6566 ± 0.0035

RCGSWKGVRGVM
protein stability index: 0.693 ± 0.032

RCLPSASYPACS
protein stability index: 0.691 ± 0.074

RCRLGDFLLSFI
protein stability index: 0.63 ± 0.034

RCVGVTNESTGT
protein stability index: 0.661 ± 0.013

RDGGVHVFATLM
protein stability index: 0.626 ± 0.018

RDGHGRHGRGER
protein stability index: 0.634 ± 0.024

RDLGGECARQVG
protein stability index: 0.7 ± 0.04

RDMVSPLPLPLL
protein stability index: 0.613 ± 0.11

RDNKTHSKRAYG
protein stability index: 0.648 ± 0.024

RDRFSWGRRSDN
protein stability index: 0.696 ± 0.041

RDRVSASILVLP
protein stability index: 0.6892 ± 0.0056

REENIKSKCRKI
protein stability index: 0.742 ± 0.021

REGGEIGDQEGT
protein stability index: 0.674 ± 0.069

REKERKRGKAVK
protein stability index: 0.698 ± 0.019

RERASCHSHTNS
protein stability index: 0.675 ± 0.013

RERKEVGRRRIG
protein stability index: 0.604 ± 0.022

RESSAYPPPGEG
protein stability index: 0.6551 ± 0.005

RESTGRDQRGIV
protein stability index: 0.673 ± 0.018

RESVLRVGCFQP
protein stability index: 0.742 ± 0.072

RFCGSGPIVPGQ
protein stability index: 0.707 ± 0.019

RFETKERGIREK
protein stability index: 0.719 ± 0.014

RFGCGRRGQWMR
protein stability index: 0.722 ± 0.06

RFGHLLRFSWLL
protein stability index: 0.6477 ± 0.0057

RFGLIFTSPHPL
protein stability index: 0.63 ± 0.013

RFLEKNKKVIDK
protein stability index: 0.742 ± 0.037

RFLVFLLNFISI
protein stability index: 0.564 ± 0.037

RFMDPFSGITAF
protein stability index: 0.716 ± 0.018

RFVGVGWRVEGG
protein stability index: 0.676 ± 0.019

RGALGGGSNRLA
protein stability index: 0.788 ± 0.26

RGARWRAGIGRG
protein stability index: 0.739 ± 0.088

RGCGRLDGRRGG
protein stability index: 0.704 ± 0.015

RGCTVHSLNSSY
protein stability index: 0.6757 ± 0.0022

RGCVKQGLYCVL
protein stability index: 0.679 ± 0.044

RGDIQASKRIHL
protein stability index: 0.752 ± 0.046

RGDVGVGHWVGG
protein stability index: 0.708 ± 0.0093

RGEGLRYVQGSR
protein stability index: 0.668 ± 0.042

RGFWRGGVVRGG
protein stability index: 0.73 ± 0.021

RGGGRGGRPRMC
protein stability index: 0.607 ± 0.085

RGGPTRVSLPPR
protein stability index: 0.654 ± 0.016

RGGRGLAAGAWW
protein stability index: 0.7035 ± 0.0055

RGGVGLEGEGGE
protein stability index: 0.615 ± 0.026

RGGVRGAIHSDL
protein stability index: 0.7039 ± 0.0025

RGHKHSNNVSRR
protein stability index: 0.696 ± 0.019

RGKKGQKEPAEK
protein stability index: 0.688 ± 0.048

RGLSGSHRAGIV
protein stability index: 0.69334 ± 0.00034

RGPPMPGRRGRA
protein stability index: 0.7 ± 0.052

RGPPRRLQCLGR
protein stability index: 0.7121 ± 0.003

RGPRVVYYRLYV
protein stability index: 0.722 ± 0.12

RGRDLSLCQFFY
protein stability index: 0.7364 ± 0.0024

RGRPEVRPPGHY
protein stability index: 0.707 ± 0.03

RGSILTTVNPPR
protein stability index: 0.75 ± 0.13

RGSSWSRVAGDG
protein stability index: 0.631 ± 0.063

RGTGRLDRLGLR
protein stability index: 0.662 ± 0.043

RGVCGVGLYTGG
protein stability index: 0.657 ± 0.02

RGVGCDMGGDGG
protein stability index: 0.65 ± 0.042

RGVGLGRWGPVV
protein stability index: 0.652 ± 0.0081

RGVGVRYGVARR
protein stability index: 0.6695 ± 0.006

RGVTEYDSGSSL
protein stability index: 0.647 ± 0.045

RGWVAGGSSAWS
protein stability index: 0.673 ± 0.054

RGWVGGGSSAWS
protein stability index: 0.651 ± 0.024

RGWWVLCGGGWG
protein stability index: 0.567 ± 0.026

RHAVNAQPVARP
protein stability index: 0.647 ± 0.036

RHHRACLNTRLG
protein stability index: 0.671 ± 0.065

RHISRIYVERRY
protein stability index: 0.695 ± 0.02

RHRGVYMDRGCL
protein stability index: 0.663 ± 0.053

RHRPLPETDLAS
protein stability index: 0.708 ± 0.016

RHSSRYLIEFDN
protein stability index: 0.744 ± 0.03

RHYGRSLRLIKT
protein stability index: 0.59 ± 0.011

RHYLWAECGSSE
protein stability index: 0.709 ± 0.017

RIALWPTSMPAL
protein stability index: 0.684 ± 0.041

RIAWTKEKMGKT
protein stability index: 0.661 ± 0.024

RIDHYIFYVNAV
protein stability index: 0.675 ± 0.017

RIFSPVFLSMSV
protein stability index: 0.649 ± 0.018

RIGKKKRYNEKS
protein stability index: 0.751 ± 0.062

RIINRATIIIKL
protein stability index: 0.564 ± 0.0065

RIKEYITDEKNR
protein stability index: 0.674 ± 0.056

RINIDLKKIAKK
protein stability index: 0.689 ± 0.05

RIRGPECDLWFR
protein stability index: 0.707 ± 0.019

RIRTLASRRLEG
protein stability index: 0.709 ± 0.1

RISIHGECHFHK
protein stability index: 0.654 ± 0.014

RIVVDIYANRRG
protein stability index: 0.689 ± 0.02

RKDDRPYIRETS
protein stability index: 0.701 ± 0.016

RKDKKKKGSKEE
protein stability index: 0.69 ± 0.046

RKEQEDVHNKKK
protein stability index: 0.671 ± 0.051

RKEVKAWKTTDI
protein stability index: 0.694 ± 0.013

RKKKKKKENKRR
protein stability index: 0.754 ± 0.054

RKKKKKKKKKSN
protein stability index: 0.631 ± 0.089
